{"source": "paper PMC10784468", "about": "(Nature Communications, 2024)", "key": {"EJ cells": {"tested_on": "EJ cells", "assay": "Intracellular ROS detection (DCFH-DA)", "type": "cell-based", "settings": "pH 6.5, 40 μM, 8 h", "protocol": "Initially, EJ cells (5 × 10^5) were cultured in confocal dish with a CO2 incubator overnight at 37 °C. […] Afterwards, EJ cells were washed with PBS for 3 times and replaced with culture mediums."}, "[1]": {"assay": "Morphology and size by TEM", "type": "physicochemical", "settings": "PBS 0.01 M, pH 6.5, 1 h, 40 μM", "protocol": "Nano-ZS 3600 (Malvern Instruments, UK) was used to measure the size distribution of the peptide-porphyrin conjugate solutions. The conjugate solutions (40 μM) were incubated at pH 7.4 or pH 6.5 before measurements. An average value was determined by three repeated measurements at 25 °C for each sample. Besides, transmission electron microscopy (TEM, Tecnai G2 20 S-TWIN) was conducted to observe the morphology and diameters of conjugates in aqueous solution, The conjugates (50 μL, 40 μM) were kept in PB solution at pH 7.4 or pH 6.5, which were dropped on copper meshes. After 5 min, unnecessary liquid was removed and the uranyl acetate solution (10 μL) was dropped on this copper mesh to stain the samples for 10 min. Finally, the copper meshes were washed with deionized water, and dried at room temperature for observation."}, "[2]": {"settings": "Cy-labeled", "protocol": "Firstly, A density of 5 × 10^6 EJ cell resuspended in Matrigel were subcutaneously injected into the right hind of mice to construct EJ xenograft model. When the tumor volume reached about 200–400 mm^3, the mice were administrated with Cy labeled Gi-F ([…]), Cy labeled Gi-F-SA ([…]) and Cy labeled Gi-F-CAA ([…]) by intravenous injection for in vivo fluorescence imaging at different timepoints (10 min, 20 min, 40 min, 1 h, 2 h, 4 h, 8 h, 12 h and 24 h) with in vivo imaging system (IVIS). Meanwhile, the EJ xenograft mice were sacrificed for collecting major organs and tumors to evaluate the biodistribution of Gi-F-CAA."}, "[3]": {"assay": "•OH by TPA fluorescence assay, turnover frequency", "settings": "TPA fluorescence 425 nm, H2O2 concentration-dependent", "protocol": "The generation of •OH was determined by the Magnettech MS-5000 EPR spectrometer. Typically, peptide-porphyrin conjugates (40 μM) were exposed to H2O2 (200 μM) for 3 min in the presence of 5,5-dimethyl-1-pyrroline-N-oxide (DMPO, 100 μM). The •OH signal was immediately detected by the EPR spectrometer. The amount of •OH was measured by using TPA as an indicator that following the increasement of HTPA fluorescence in the conjugate solution. Briefly, TPA (50 μL, 2 mM) and fresh conjugate solution (50 mM) were mixed with 1 ml H2O, and then the solution was exposed to various concentration of H2O2. The fluorescence at 425 nm (λex = 310 nm) was recorded at 5 min to determine the concentration of •OH, which can further be applied for calculating the TOF of peptide-porphyrin conjugates.\nSupplementary Fig. 21. Terephthalic acid (TPA) reacts with hydroxyl radical in solution to produce stable and strong fluorescent substances (Ortho -hydroxyterephthalic acid, HTPA). The reaction is used to quantitatively analyze •OH produced by Gi -F under the H2O2 treatment (a). Plot showing the linear relationship of relative fluorescence intensity with H 2O2 concentration (b). The fluorescence of different concentration of HTPA at 425 […]\n(1 picture or pasted object on this page, not shown here)"}, "[4]": {"settings": "ex vivo, i.v., EJ xenograft mice"}, "[5]": {"settings": "ex vivo, EJ xenograft mice, i.v. 0.5 mg/kg, mice 1"}, "[6]": {"settings": "ex vivo, EJ xenograft mice, i.v. 0.5 mg/kg, mice 2"}, "[7]": {"settings": "ex vivo, EJ xenograft mice, i.v. 0.5 mg/kg, mice 3"}, "[8]": {"settings": "ex vivo, EJ xenograft mice, i.v. 1 mg/kg, mice 1"}, "[9]": {"settings": "ex vivo, EJ xenograft mice, i.v. 1 mg/kg, mice 2"}, "[10]": {"settings": "ex vivo, EJ xenograft mice, i.v. 1 mg/kg, mice 3"}, "[11]": {"settings": "ex vivo, EJ xenograft mice, i.v. 2 mg/kg, mice 1"}, "[12]": {"settings": "ex vivo, EJ xenograft mice, i.v. 2 mg/kg, mice 2"}, "[13]": {"settings": "ex vivo, EJ xenograft mice, i.v. 2 mg/kg, mice 3"}, "[14]": {"settings": "ex vivo, EJ xenograft mice, i.v. 4 mg/kg, mice 1"}, "[15]": {"settings": "ex vivo, EJ xenograft mice, i.v. 4 mg/kg, mice 2"}, "[16]": {"settings": "ex vivo, EJ xenograft mice, i.v. 4 mg/kg, mice 3"}, "[17]": {"settings": "ex vivo, EJ xenograft mice, i.v. 8 mg/kg, mice 1"}, "[18]": {"settings": "ex vivo, EJ xenograft mice, i.v. 8 mg/kg, mice 2"}, "[19]": {"settings": "ex vivo, EJ xenograft mice, i.v. 8 mg/kg, mice 3"}}, "note": "Where two headings read alike, the source gives them in different places. Positions of bridges follow the written chain, without caps; N, C: chain ends. Residues, ends and D or L forms follow the SMILES beside them. *: point of attachment. X1 = O=C(O)c1ccc(-c2c3nc(c(-c4ccc(C(=O)O)cc4)c4ccc([nH]4)c(-c4ccc(C(=O)*)cc4)c4nc(c(-c5ccc(C(=O)O)cc5)c5ccc2[nH]5)C=C4)C=C3)cc1; X2 = O=C(O)C/C(=C/C(=O)*)C(=O)O", "data": [{"compound": "CC(C)C[C@H](NC(=O)c1ccc(-c2c3nc(c(-c4ccc(C(=O)O)cc4)c4ccc([nH]4)c(-c4ccc(C(=O)O)cc4)c4nc(c(-c5ccc(C(=O)O)cc5)c5ccc2[nH]5)C=C4)C=C3)cc1)C(=O)N[C@@H](CCCCNC(=O)/C=C(/CC(=O)O)C(=O)O)C(=O)N[C@@H](CC(C)C)C(=O)N[C@@H](CCCCN)C(=O)N[C@@H](CC(C)C)C(=O)N[C@@H](CCCCNC(=O)/C=C(/CC(=O)O)C(=O)O)C(=O)NCC(=O)N[C@@H](C)C(=O)N[C@H]1CSSC[C@@H](C(=O)N2CCC[C@H]2C(=O)N[C@H](C(=O)O)C(C)C)NC(=O)[C@@H]2CCCN2C(=O)[C@H](Cc2ccc(O)cc2)NC(=O)[C@H](CC(C)C)NC(=O)[C@@H]2CCCN2C(=O)[C@H](CC(C)C)NC(=O)[C@H](Cc2c[nH]c3ccccc23)NC(=O)[C@H](CC(N)=O)NC1=O", "note": "[Gi-F-CAA] (X1-LK(X2)LKLK(X2)GACNWLPLYPCPV-OH; disulfide 9-17; C-terminus assumed)", "values": [{"measurement": "intracellular ROS (DCFH-DA)", "setting": "EJ cells", "value": "Apparent green fluorescence"}, {"measurement": "particle size (TEM)", "setting": "[1]", "value": "57 ± 9", "unit": "nm"}, {"measurement": "ex vivo fluorescence signal at the tumor", "setting": "[2]; 8 mg/kg i.v., versus Gi-F and Gi-F-SA groups", "value": "strong fluorescence signal"}, {"measurement": "fluorescence intensity at tumor relative to kidney", "setting": "[2]; [4]", "value": "~ 2.4 fold"}, {"measurement": "fluorescence intensity at tumor relative to liver", "setting": "[2]; [4]", "value": "~ 1.9 fold"}, {"measurement": "kidney Average FI", "setting": "[2]; [5]", "value": "1.89E+07 x10^8 p/cm2/s"}, {"measurement": "liver Average FI", "setting": "[2]; [5]", "value": "2.16E+07 x10^8 p/cm2/s"}, {"measurement": "tumor Average FI", "setting": "[2]; [5]", "value": "1.51E+07 x10^8 p/cm2/s"}, {"measurement": "kidney Average FI", "setting": "[2]; [6]", "value": "1.50E+07 x10^8 p/cm2/s"}, {"measurement": "liver Average FI", "setting": "[2]; [6]", "value": "1.85E+07 x10^8 p/cm2/s"}, {"measurement": "tumor Average FI", "setting": "[2]; [6]", "value": "1.10E+07 x10^8 p/cm2/s"}, {"measurement": "kidney Average FI", "setting": "[2]; [7]", "value": "1.59E+07 x10^8 p/cm2/s"}, {"measurement": "liver Average FI", "setting": "[2]; [7]", "value": "1.52E+07 x10^8 p/cm2/s"}, {"measurement": "tumor Average FI", "setting": "[2]; [7]", "value": "1.37E+07 x10^8 p/cm2/s"}, {"measurement": "kidney Average FI", "setting": "[2]; [8]", "value": "3.76E+07 x10^8 p/cm2/s"}, {"measurement": "liver Average FI", "setting": "[2]; [8]", "value": "4.34E+07 x10^8 p/cm2/s"}, {"measurement": "tumor Average FI", "setting": "[2]; [8]", "value": "2.76E+07 x10^8 p/cm2/s"}, {"measurement": "kidney Average FI", "setting": "[2]; [9]", "value": "3.14E+07 x10^8 p/cm2/s"}, {"measurement": "liver Average FI", "setting": "[2]; [9]", "value": "3.92E+07 x10^8 p/cm2/s"}, {"measurement": "tumor Average FI", "setting": "[2]; [9]", "value": "2.99E+07 x10^8 p/cm2/s"}, {"measurement": "kidney Average FI", "setting": "[2]; [10]", "value": "3.06E+07 x10^8 p/cm2/s"}, {"measurement": "liver Average FI", "setting": "[2]; [10]", "value": "3.19E+07 x10^8 p/cm2/s"}, {"measurement": "tumor Average FI", "setting": "[2]; [10]", "value": "3.48E+07 x10^8 p/cm2/s"}, {"measurement": "kidney Average FI", "setting": "[2]; [11]", "value": "5.61E+07 x10^8 p/cm2/s"}, {"measurement": "liver Average FI", "setting": "[2]; [11]", "value": "6.33E+07 x10^8 p/cm2/s"}, {"measurement": "tumor Average FI", "setting": "[2]; [11]", "value": "4.80E+07 x10^8 p/cm2/s"}, {"measurement": "kidney Average FI", "setting": "[2]; [12]", "value": "4.60E+07 x10^8 p/cm2/s"}, {"measurement": "liver Average FI", "setting": "[2]; [12]", "value": "5.75E+07 x10^8 p/cm2/s"}, {"measurement": "tumor Average FI", "setting": "[2]; [12]", "value": "3.97E+07 x10^8 p/cm2/s"}, {"measurement": "kidney Average FI", "setting": "[2]; [13]", "value": "4.92E+07 x10^8 p/cm2/s"}, {"measurement": "liver Average FI", "setting": "[2]; [13]", "value": "4.67E+07 x10^8 p/cm2/s"}, {"measurement": "tumor Average FI", "setting": "[2]; [13]", "value": "3.88E+07 x10^8 p/cm2/s"}, {"measurement": "kidney Average FI", "setting": "[2]; [14]", "value": "7.41E+07 x10^8 p/cm2/s"}, {"measurement": "liver Average FI", "setting": "[2]; [14]", "value": "9.04E+07 x10^8 p/cm2/s"}, {"measurement": "tumor Average FI", "setting": "[2]; [14]", "value": "9.54E+07 x10^8 p/cm2/s"}, {"measurement": "kidney Average FI", "setting": "[2]; [15]", "value": "6.02E+07 x10^8 p/cm2/s"}, {"measurement": "liver Average FI", "setting": "[2]; [15]", "value": "7.81E+07 x10^8 p/cm2/s"}, {"measurement": "tumor Average FI", "setting": "[2]; [15]", "value": "8.23E+07 x10^8 p/cm2/s"}, {"measurement": "kidney Average FI", "setting": "[2]; [16]", "value": "6.88E+07 x10^8 p/cm2/s"}, {"measurement": "liver Average FI", "setting": "[2]; [16]", "value": "6.42E+07 x10^8 p/cm2/s"}, {"measurement": "tumor Average FI", "setting": "[2]; [16]", "value": "9.16E+07 x10^8 p/cm2/s"}, {"measurement": "kidney Average FI", "setting": "[2]; [17]", "value": "8.52E+07 x10^8 p/cm2/s"}, {"measurement": "liver Average FI", "setting": "[2]; [17]", "value": "1.07E+08 x10^8 p/cm2/s"}, {"measurement": "tumor Average FI", "setting": "[2]; [17]", "value": "2.09E+08 x10^8 p/cm2/s"}, {"measurement": "kidney Average FI", "setting": "[2]; [18]", "value": "6.80E+07 x10^8 p/cm2/s"}, {"measurement": "liver Average FI", "setting": "[2]; [18]", "value": "9.09E+07 x10^8 p/cm2/s"}, {"measurement": "tumor Average FI", "setting": "[2]; [18]", "value": "1.62E+08 x10^8 p/cm2/s"}, {"measurement": "kidney Average FI", "setting": "[2]; [19]", "value": "7.55E+07 x10^8 p/cm2/s"}, {"measurement": "liver Average FI", "setting": "[2]; [19]", "value": "8.19E+07 x10^8 p/cm2/s"}, {"measurement": "tumor Average FI", "setting": "[2]; [19]", "value": "1.71E+08 x10^8 p/cm2/s"}]}, {"compound": "FeTCPP-LKLKLKGACNWLPLYPCPV (disulfide) [Gi-F]", "values": [{"measurement": "turnover frequency (TOF)", "setting": "[3]", "value": 0.022, "unit": "s⁻¹"}]}]}
